Data published in patent US20130183306A1 (INTERNATIONAL DRUG DEVELOPMENT BIOTECH, published 2013).

Molecular target: T1, human complement C1q (from natural human complement serum) (human, UniProt P02745 23-245; P02746 28-253; P02747 29-245)
T1 construct: Whole human complement serum was added to the coated MAb; also called complement human serum
Experiment: ELISA, MAb coated on the plate, natural human complement added, detection with anti-human C1q peroxidase conjugate
Procedure: The binding of human complement serum to MAbs was assessed by an ELISA binding assay. The 96-well plates (Nunc) were coated overnight at 4° C. with varying MAb concentrations. After washing, the plates were blocked with PBS-5% BSA for 1 h, and incubated for 1 h with 2.5 μl/well of natural human complement (Sigma). Then, 100 μl/well of a 1/500 dilution of sheep anti-human C1q peroxidase-conjugated Ab (Abd Serotec) added and incubated for 1h. The plates were developed with 100 μl per well of TMB substrate (Uptima Interchim). After H₂SO₄ addition, the OD was measured at 450 nm/630 nm using a MRX II microplate reader. Data represent mean+/−SD of two independent experiments.

T1 sequence (P02745 23-245 limits assumed, chain 1 of 3): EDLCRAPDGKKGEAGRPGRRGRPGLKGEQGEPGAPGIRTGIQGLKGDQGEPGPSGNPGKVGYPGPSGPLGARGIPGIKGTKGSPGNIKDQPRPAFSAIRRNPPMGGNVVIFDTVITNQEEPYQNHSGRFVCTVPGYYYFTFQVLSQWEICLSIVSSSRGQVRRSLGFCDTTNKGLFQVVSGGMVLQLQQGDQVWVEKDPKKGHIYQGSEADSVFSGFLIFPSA
T1 sequence (P02746 28-253 limits assumed, chain 2 of 3): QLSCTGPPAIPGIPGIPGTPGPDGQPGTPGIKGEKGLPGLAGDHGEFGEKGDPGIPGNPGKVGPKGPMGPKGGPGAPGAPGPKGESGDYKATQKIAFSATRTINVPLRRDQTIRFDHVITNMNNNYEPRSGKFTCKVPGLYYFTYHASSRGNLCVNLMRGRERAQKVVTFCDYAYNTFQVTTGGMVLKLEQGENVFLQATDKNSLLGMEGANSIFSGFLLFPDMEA
T1 sequence (P02747 29-245 limits assumed, chain 3 of 3): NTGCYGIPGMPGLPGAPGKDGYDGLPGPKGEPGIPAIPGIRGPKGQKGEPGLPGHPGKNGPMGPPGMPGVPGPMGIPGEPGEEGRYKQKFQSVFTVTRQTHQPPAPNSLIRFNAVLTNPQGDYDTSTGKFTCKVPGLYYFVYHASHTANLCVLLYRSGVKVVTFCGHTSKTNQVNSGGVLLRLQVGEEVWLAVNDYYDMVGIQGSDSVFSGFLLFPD

B1: chR005-1 Fc24 (antibody, human IgG1, name in EU numbering)
heavy: QVQLQQSGAELVRPGSSVKISCKASGYAFSSYWVNWMKQRPGQGLEWIGQIYPGDGDTNYNGKFKGRATVTADKSSSTSYMQFSSLTSEDSAVYFCARSITTVVGCAMDYWGQGTSVTVSSASTKGPSVFPLAPSSKSTSGGTAALGCLVKDYFPEPVTVSWNSGALTSGVHTFPAVLQSSGLYSLSSVVTVPSSSLGTQTYICNVNHKPSNTKVDKKVEPKSCDKTHTCPPCPAPELLGGPSVFLLPPKPKDTLMISRTPEVTCVVVDVSHEDPEVKFNWYVDGVEVHNAKTKPPEEQYNSTLRVVSLLTVLHQDWLNGKEYKCKVSNAALPAPIAKTISKAKGQPREPQVYTLPPSRDELTKNQVSLTCLVKGFYPSDIAVEWESNGQPENNYKTTPLVLDSDGSFFLYSKLTVDKSRWQQGNVFSCSVMHEALHNHYTQKSLSLSPGK
light: DIQMTQSSAYLSVSLGGRVTITCKASDHINNWLAWYQHKPGNAPRLLISGATTLETGVPSRFSGSGSGKDYTLSITSLQTEDVATYYCQQSWNTPWTFGGGTK
notes: also called chR005-1 MAb Fc24 optimized variant; not shown: human light chain constant region
  binding result: binds
